The results in this text go back to the supplement of paper PMC7125110.

Sequences and labels used below:
B1: glmS ribozyme (parent)
chain: AUAAAAGCGCCAGAACUACAGAAAUGUAGUUGACGAGGAGGAGGUUUAUCGAAUUUUCGGCGGAUGCCUCCAAA

What all share (details): with glucosamine-6-phosphate
The variants in series [1] derive from B1. In words: kcat; higher = faster cleavage; RNA array. A digest of the protocol: (§1)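 Using a hybridised Cy3 probe at 37 °C, barcoded ribozyme variants transcribed in situ by E. coli RNA polymerase on sequenced MiSeq chips were monitored across tiles imaged over ~14 h. The flow contained glucosamine-6-phosphate from 40 μM to 10 mM in HEPES/KCl/Mg(OAc)2 buffer. Signals were normalised to baseline and to non-cleaving reference variants before per-tile medians were fit to one- or two-exponential decays to yield kobs. Weighted Michaelis–Menten fits across concentrations gave kcat and KM.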

Series [2] covers variants of B1. In words: KM; higher = weaker cofactor use; RNA array. A digest of the protocol:
as §1

In series [3] the parent is B1. In words: self-cleavage kobs at 40 uM GlcN6P; higher = faster cleavage; RNA array. The gist of the method:
as §1

Series [4] covers variants of B1. In words: self-cleavage kobs at 160 uM GlcN6P; higher = faster cleavage; RNA array. The gist of the method: as §1
The variants in series [5] derive from B1. In words: self-cleavage kobs at 640 uM GlcN6P; higher = faster cleavage; RNA array. A digest of the protocol:
as §1

In series [6] the parent is B1. In words: self-cleavage kobs at 2500 uM GlcN6P; higher = faster cleavage; RNA array. The gist of the method: as §1
Series [7] covers variants of B1. In words: self-cleavage kobs at 10000 uM GlcN6P; higher = faster cleavage; RNA array. The gist of the method: as §1

± gives the standard error. For some of these results: Fewer inactive variants are shown than the library holds.

Take U30G U45G: the kcat in series [1] was 0.00151 ± 0.00041 s⁻¹. The KM in series [2] came to 2200 ± 950 µM. For the same variant, the “self-cleavage kobs at 40 uM GlcN6P” value in series [3] is 3.05e-05 ± 1.4e-05 s⁻¹. For the same variant, in series [4], the “self-cleavage kobs at 160 uM GlcN6P” value is 7.13e-05 ± 2.2e-05 s⁻¹. Also, the “self-cleavage kobs at 640 uM GlcN6P” value in series [5] came out at 0.000382 ± 6.4e-05 s⁻¹. Moreover, the “self-cleavage kobs at 2500 uM GlcN6P” value in series [6] came out at 0.00102 ± 0.00015 s⁻¹. For the same variant, in series [7], the “self-cleavage kobs at 10000 uM GlcN6P” value is 0.00103 ± 0.00021 s⁻¹.

Consider A14C U30C A53G, for which the kcat in series [1] turned out to be 1.63e-05 ± 3.1e-06 s⁻¹.

C16U U65A: the kcat in series [1] worked out at 0.00359 ± 0.00068 s⁻¹. Moreover, the Michaelis-Menten constant (KM) in series [2] was 2370 ± 610 µM. Also, the “self-cleavage kobs at 40 uM GlcN6P” value in series [3] was found to be 7.34e-05 ± 1.2e-05 s⁻¹. Further, the “self-cleavage kobs at 160 uM GlcN6P” value in series [4] was 0.000189 ± 2.9e-05 s⁻¹. In addition, the “self-cleavage kobs at 640 uM GlcN6P” value in series [5] amounted to 0.000817 ± 0.00011 s⁻¹. Also, in series [6], the “self-cleavage kobs at 2500 uM GlcN6P” value is 0.00193 ± 0.00025 s⁻¹. Further, the “self-cleavage kobs at 10000 uM GlcN6P” value in series [7] worked out at 0.00276 ± 0.00049 s⁻¹.

For G29C G66A, the kcat in series [1] is 0.00186 ± 0.00025 s⁻¹. Moreover, the KM in series [2] came out at 4030 ± 750 µM. For the same variant, the “self-cleavage kobs at 160 uM GlcN6P” value in series [4] came out at 6.45e-05 ± 1.3e-05 s⁻¹. Also, the “self-cleavage kobs at 640 uM GlcN6P” value in series [5] came to 0.00027 ± 3.9e-05 s⁻¹. Further, the “self-cleavage kobs at 2500 uM GlcN6P” value in series [6] was 0.000714 ± 0.00013 s⁻¹. Besides, in series [7], the “self-cleavage kobs at 10000 uM GlcN6P” value turned out to be 0.00132 ± 0.0002 s⁻¹.

In the case of G9U U69G, the kcat in series [1] was found to be 1.33e-05 ± 5.4e-06 s⁻¹. In addition, the “self-cleavage kobs at 2500 uM GlcN6P” value in series [6] is < 1e-05 s⁻¹. In series [7], the “self-cleavage kobs at 10000 uM GlcN6P” value is < 1e-05 s⁻¹.

With A14G C50G, the kcat in series [1] is 4.1e-05 ± 7.6e-06 s⁻¹. For the same variant, the “self-cleavage kobs at 2500 uM GlcN6P” value in series [6] turned out to be 4.52e-05 ± 2e-05 s⁻¹.

U46C A53C: the turnover number (kcat) in series [1] stood at 0.002 ± 0.00044 s⁻¹. Besides, in series [2], the KM amounted to 1380 ± 480 µM. Further, the “self-cleavage kobs at 40 uM GlcN6P” value in series [3] was 7.57e-05 ± 1.7e-05 s⁻¹. In series [4], the “self-cleavage kobs at 160 uM GlcN6P” value turned out to be 0.000151 ± 4e-05 s⁻¹. Also, the “self-cleavage kobs at 640 uM GlcN6P” value in series [5] came out at 0.000706 ± 0.00013 s⁻¹. Also, in series [6], the “self-cleavage kobs at 2500 uM GlcN6P” value was 0.00155 ± 0.00033 s⁻¹. Also, the “self-cleavage kobs at 10000 uM GlcN6P” value in series [7] was 0.00162 ± 0.0003 s⁻¹.

Regarding C11A U69A, the catalytic constant (kcat) in series [1] turned out to be 4.95e-05 ± 1.6e-05 s⁻¹. The “self-cleavage kobs at 640 uM GlcN6P” value in series [5] was determined as 6.89e-05 ± 2.4e-05 s⁻¹. In addition, the “self-cleavage kobs at 2500 uM GlcN6P” value in series [6] amounted to 7.69e-05 ± 2.5e-05 s⁻¹.

Consider U30A A36U, for which, in series [1], the turnover number (kcat) is < 1e-05 s⁻¹. For the same variant, the “self-cleavage kobs at 640 uM GlcN6P” value in series [5] is < 1e-05 s⁻¹.

On to G41U U49G, for which the turnover number (kcat) in series [1] worked out at 3.94e-05 ± 6e-06 s⁻¹. The “self-cleavage kobs at 40 uM GlcN6P” value in series [3] was < 1e-05 s⁻¹. The “self-cleavage kobs at 10000 uM GlcN6P” value in series [7] is 3.38e-05 ± 1e-05 s⁻¹.

On to U56A A64G, for which, in series [1], the kcat is 0.0109 ± 0.0032 s⁻¹. Further, the Michaelis-Menten constant (KM) in series [2] amounted to 1640 ± 680 µM. In addition, in series [3], the “self-cleavage kobs at 40 uM GlcN6P” value worked out at 0.00036 ± 5.4e-05 s⁻¹. Further, the “self-cleavage kobs at 160 uM GlcN6P” value in series [4] amounted to 0.000983 ± 0.00014 s⁻¹. The “self-cleavage kobs at 640 uM GlcN6P” value in series [5] is 0.0025 ± 0.00037 s⁻¹. In series [6], the “self-cleavage kobs at 2500 uM GlcN6P” value came out at 0.00654 ± 0.00084 s⁻¹. Moreover, the “self-cleavage kobs at 10000 uM GlcN6P” value in series [7] is 0.0123 ± 0.0025 s⁻¹.

For the variant U56A C71A, in series [1], the catalytic constant (kcat) turned out to be 0.00492 ± 0.0022 s⁻¹. The “self-cleavage kobs at 40 uM GlcN6P” value in series [3] came out at 9.35e-05 ± 1.1e-05 s⁻¹. Moreover, the “self-cleavage kobs at 160 uM GlcN6P” value in series [4] amounted to 0.000174 ± 3.4e-05 s⁻¹. The “self-cleavage kobs at 640 uM GlcN6P” value in series [5] is 0.000881 ± 0.0001 s⁻¹. Moreover, in series [6], the “self-cleavage kobs at 2500 uM GlcN6P” value worked out at 0.00216 ± 0.00042 s⁻¹. The “self-cleavage kobs at 10000 uM GlcN6P” value in series [7] was 0.00398 ± 0.00071 s⁻¹.

As for A12U U30G, the catalytic constant (kcat) in series [1] was 0.0227 ± 0.0046 s⁻¹. In addition, the Michaelis constant (KM) in series [2] came out at 983 ± 280 µM. The “self-cleavage kobs at 40 uM GlcN6P” value in series [3] came out at 0.000931 ± 0.00012 s⁻¹. Further, in series [5], the “self-cleavage kobs at 640 uM GlcN6P” value turned out to be 0.00794 ± 0.0013 s⁻¹. Moreover, the “self-cleavage kobs at 2500 uM GlcN6P” value in series [6] was 0.0279 ± 0.0091 s⁻¹. Besides, in series [7], the “self-cleavage kobs at 10000 uM GlcN6P” value stood at 0.0211 ± 0.0039 s⁻¹.

On to G13C C58A, for which the catalytic constant (kcat) in series [1] is 0.000354 ± 6.9e-05 s⁻¹. Moreover, the Michaelis-Menten constant (KM) in series [2] came to 7610 ± 2700 µM. In series [5], the “self-cleavage kobs at 640 uM GlcN6P” value is 4.16e-05 ± 9.2e-06 s⁻¹. Besides, the “self-cleavage kobs at 2500 uM GlcN6P” value in series [6] is 8e-05 ± 9.7e-06 s⁻¹. The “self-cleavage kobs at 10000 uM GlcN6P” value in series [7] came out at 0.000203 ± 1.3e-05 s⁻¹.

With G40A C70G, the catalytic constant (kcat) in series [1] is 0.00031 ± 9.1e-05 s⁻¹. In addition, the “self-cleavage kobs at 640 uM GlcN6P” value in series [5] came to 0.000105 ± 1.9e-05 s⁻¹. The “self-cleavage kobs at 2500 uM GlcN6P” value in series [6] was 0.000394 ± 0.00012 s⁻¹. In addition, the “self-cleavage kobs at 10000 uM GlcN6P” value in series [7] came to 0.000244 ± 6.4e-05 s⁻¹.

For U31A U55C, the kcat in series [1] worked out at 0.0168 ± 0.0039 s⁻¹. Besides, the KM in series [2] stood at 3130 ± 990 µM. The “self-cleavage kobs at 40 uM GlcN6P” value in series [3] came to 0.000283 ± 4.3e-05 s⁻¹. The “self-cleavage kobs at 160 uM GlcN6P” value in series [4] was 0.000647 ± 0.00012 s⁻¹. Moreover, in series [5], the “self-cleavage kobs at 640 uM GlcN6P” value stood at 0.00293 ± 0.00082 s⁻¹. Moreover, in series [6], the “self-cleavage kobs at 2500 uM GlcN6P” value stood at 0.00826 ± 0.0023 s⁻¹. In addition, the “self-cleavage kobs at 10000 uM GlcN6P” value in series [7] was determined as 0.0127 ± 0.0018 s⁻¹.
